Results as given in article PMC5586343, “t‐Darpp is an elongated monomer that binds calcium and is phosphorylated by cyclin‐dependent kinases 1 and 5” (FEBS Open Bio, 2017).

Target: the molecule itself
Assay: cross-linking; glutaraldehyde 0.1% (v/v) and 1% (v/v), 30 min at 25 °C, then SDS/PAGE; each protein alone and an equimolar mixture of t‐Darpp and Darpp‐32

B1: Darpp‐32 (dopamine‐ and cAMP‐regulated phosphoprotein) (natural protein, human, UniProt Q9UD71-1 1-204, looked up)
chain: MDPKDRKKIQFSVPAPPSQLDPRQVEMIRRRRPTPAMLFRLSEHSSPEEEASPHQRASGEGHHLKSKRPNPCAYTPPSLKAVQRIAESHLQSISNLNENQASEEEDELGELRELGYPREEDEEEEEDDEEEEEEEDSQAEVLKVIRQSAGQKTTCGQGLEGPWERPPPLDESERDGGSEDQVEDPALSEPGEEPQRPSPSEPGT
notes: Darpp‐32, longer isoform of PPP1R1B with 36 additional N-terminal residues compared with t‐Darpp; cDNA amplified from Darpp‐32/pET‐49 and cloned into pET‐28a; source: E. coli BL21 DE3, purified (Ni‐NTA)
  stoichiometry N: 2
